Test results: patent publication US20130101549A1 (Biogen, published 2013)

Legend:
human HER2-Fc [1] = biological target: T1, human HER2-Fc (human, UniProt P04626 23-652); experiment: ELISA on coated HER2-Fc
T1 construct: Bought from R&D Systems: homodimeric fusion of the HER2 extracellular domain and human IgG1 Fc; also called human ErbB2-Fc; rhErbB2-Fc; not shown: Fc fragment of human IgG1
Experimental: (§1) Human and murine ErbB2-Fc were obtained from R&D Systems. Wells of 96-well plates were coated with 2 ug/ml or 0.2 ug/ml of human or murine HER2-Fc by incubation overnight at 4-8° C. with either of these six proteins (80 ul/well of a 0.2 or 2 ug/ml solution in PBS). Wells were emptied, filled completely with a solution of PBS with 1% BSA (blocking buffer) and incubated at room temperature for 1 hour. Wells were emptied, washed twice PBS containing 0.05% Tween 20 (PBST) and filled with the samples (80 ul/well of 3× dilution series of the standard and supernatants in blocking buffer) prepared in another 96-well plate. After a 2-hour incubation at room temperature, the wells were emptied, washed three times with PBST and filled with a solution of HRP-conjugated goat pAbs anti-human kappa chain (80 ul/well of a 2000-fold dilution in blocking buffer). After 1-hour incubation, the wells were emptied and filled with a solution of HRP substrate prepared freshly. The color was left to develop for 3 minutes and was stopped by addition of an equal volume of 1N H₂SO₄. Absorbance was measured at 450 nm using a Plate Reader (SpectraMax, Molecular Devices). The data was processed and graphs were created using SoftMax Pro software.

human HVEM-Ig [2] = biological target: T2, human HVEM-Ig (human, UniProt Q92956 39-202); experiment: ELISA on coated HVEM-Ig
T2 construct: Expressed and purified in house; also called HVEM-Fc; Herpes virus entry mediator-Ig
T2 sequence (looked up): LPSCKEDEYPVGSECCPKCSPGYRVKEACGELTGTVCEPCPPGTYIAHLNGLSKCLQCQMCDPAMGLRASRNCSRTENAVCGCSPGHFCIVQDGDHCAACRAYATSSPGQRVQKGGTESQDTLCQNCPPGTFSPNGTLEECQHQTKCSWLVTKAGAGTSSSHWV
Experimental: as §1
(§2) Human and murine HVEM-Ig were expressed and purified in house.

human HVEM-Ig [3] = biological target: T2, human HVEM-Ig; experiment: FACS (HVEM column of Table 2; format not told there)
human HER2-Fc [4] = biological target: T1, human HER2-Fc; experiment: Octet biolayer interferometry, receptor-Fc on anti-human Fc biosensor, culture supernatant
Experimental: (§3) Anti-human Fc-specific biosensors (Fortebio SKU 18-0001) were hydrated in OB (1×PBS supplemented with 1 mg/ml BSA, 0.05% NaN₃, and 0.02% TWEEN 20) for at least five minutes prior to assays. For each assay, the respective receptor—Fc fusion was diluted to 10 μg/ml in OB and allowed to bind to the biosensors for five minutes. The sensors were then incubated in the indicated culture supernatant for an additional five minutes, and subsequently transferred to fresh wells […].

human LTβR-Ig = biological target: T3, human LTβR-Ig (human, UniProt P36941 31-227); experiment: as above
T3 construct: Expressed and purified in house; also called hLTbR-Ig; human LTBR-Ig
T3 sequence (P36941 31-227): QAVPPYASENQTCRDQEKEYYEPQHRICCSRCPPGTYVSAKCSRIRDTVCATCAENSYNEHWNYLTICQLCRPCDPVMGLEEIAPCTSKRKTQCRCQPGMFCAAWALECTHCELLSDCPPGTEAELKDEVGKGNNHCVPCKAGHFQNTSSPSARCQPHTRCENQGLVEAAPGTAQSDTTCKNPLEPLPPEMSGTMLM
Experimental: as §3

murine LTβR-Ig = biological target: T4, murine LTβR-Ig (mouse, UniProt P50284 31-223); experiment: ELISA, muLTBR-Ig coated at 2 ug/ml, HRP goat anti-human kappa; the number is C of the printed 4-P fit (A 0.093, B 0.898, D 1.613, R^2 0.995); Fab-Light is BIIB71F10-132 by paragraph 502
T4 construct: Expressed and purified in house; also called mLTbR; murine LTBR-Ig
T4 sequence (P50284 31-223): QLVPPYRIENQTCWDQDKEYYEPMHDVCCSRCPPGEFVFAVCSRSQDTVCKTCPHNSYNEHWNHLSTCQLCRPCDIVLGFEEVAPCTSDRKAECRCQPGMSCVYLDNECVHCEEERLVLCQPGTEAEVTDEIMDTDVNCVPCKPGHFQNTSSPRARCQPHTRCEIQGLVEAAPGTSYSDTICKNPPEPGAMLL
Experimental: as §1
Human and murine LTBR-Ig were expressed and purified in house.

murine HVEM-Ig = biological target: T5, murine HVEM-Ig (mouse, UniProt Q80WM9 39-210); experiment: ELISA, muHVEM-Ig coated at 0.2 ug/ml, HRP goat anti-human kappa; the number is C of the printed 4-P fit (A 0.045, B 0.716, D 1.298, R^2 0.996); Fab-Light is BIIB71F10-132 by paragraph 503
T5 construct: Expressed and purified in house
T5 sequence (looked up): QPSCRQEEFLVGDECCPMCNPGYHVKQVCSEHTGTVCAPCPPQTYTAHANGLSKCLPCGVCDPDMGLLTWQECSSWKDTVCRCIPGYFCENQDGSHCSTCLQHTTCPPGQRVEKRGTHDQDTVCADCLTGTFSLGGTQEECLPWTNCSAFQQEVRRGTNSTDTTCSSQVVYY
Experimental: as §1, §2

B1: 71F10 Fab-hLIGHT fusion with the (G4S)4 linker (BIIB71F10-132) (other)
heavy: EVQLLESGGGLVQPGGSLRLSCAASGFTFSSYGMVWVRQAPGKGLEWVSSISSSGGLTWYADSVKGRFTISRDNSKNTLYLQMNSLRAEDTAVYYCASPPGIAVARDYWGQGTLVTVSSASTKGPSVFPLAPSSKSTSGGTAALGCLVKDYFPEPVTVSWNSGALTSGVHTFPAVLQSSGLYSLSSVVTVPSSSLGTQTYICNVNHKPSNTKVDKKVEPKSCDKGGGGSGGGGSGGGGSGGGGSNPAAHLTGANSSLTGSGGPLLWETQLGLAFLRGLSYHDGALVVTKAGYYYIYSKVQLGGVGCPLGLASTITHGLYKRTPRYPEELELLVSQQSPCGRATSSSRVWWDSSFLGGVVHLEAGEEVVVRVLDERLVRLRDGTRSYFGAFMV
light: DIQMTQSPSSLSASVGDRVTITCRASQGISNYLAWYQQKPGKVPKLLIYAASTLQSGVPSRFSGSGSGTDFTLTISSLQPEDVATYYCQKYNSALLTFGGGTKVEIKRTVAAPSVFIFPPSDEQLKSGTASVVCLLNNFYPREAKVQWKVDNALQSGNSQESVTEQDSKDSTYSLSSTLTLSKADYEKHKVYACEVTHQGLSSPVTKSFNRGEC
notes: Trimer of Fab-LIGHT units; also called 71F10 Fab-(G4S)4-LIGHT
Human HER2-Fc [1]
  EC50: 0.05 nM
Human HVEM-Ig [2]
  EC50: 0.01 nM
Human HVEM-Ig [3]
  EC50: 0.5 nM
Human HER2-Fc [4]
  koff: 0.000117 s⁻¹
Human LTβR-Ig
  koff: 0.000197 s⁻¹
Murine LTβR-Ig
  EC50: 0.00357 µg/mL
Murine HVEM-Ig
  EC50: 0.0263 µg/mL
